# Experimental data as given in US9993529B2, “Stable formulations of a hyaluronan-degrading enzyme” (Halozyme, Inc., priority 2011, dated 2018).
# Assay: RP-HPLC insulin apparent solubility / percent recovery (content)
# Conditions: for Solubility of Lispro: 7 days at 2-8° C.
# Protocol: Apparent solubility was measured as the percent insulin recovery as compared to the initial formulations/conditions.
# Samples were prepared by withdrawing 100 μL from each vial at every time point and centrifuging prior to loading. Samples were stored in an autosampler at 4° C. prior to use, and were considered stable for 3 days after preparation. All samples were tested in duplicate.
# For insulin, 20 μL was injected for each HPLC run.
# To determine the apparent solubility, the peak area of insulin/insulin analog main peak and desamido peak were integrated and combined together to calculate the percentage relative to the standards. […] The data were processed using Design-Expert® 7.0 (StatEase) and the “historical data” feature. Insulin percent purity was expressed as the percent of main insulin versus all insulin species.
substance,measurement,setting,value
"insulin Lispro: LysB28, ProB29 human insulin analog",Solubility of Lispro,"0.2% methylparaben + […] m-cresol, pH 6.6, NaCl 50 mM",42.0%
same,Solubility of Lispro,"0.2% methylparaben + […] m-cresol, pH 6.6, NaCl 80 mM",28.2%
same,Solubility of Lispro,"0.2% methylparaben + […] m-cresol, pH 6.6, NaCl 110 mM",24.1%
same,Solubility of Lispro,"0.2% methylparaben + […] m-cresol, pH 6.6, NaCl 140 mM",25.9%
same,Solubility of Lispro,"0.2% methylparaben + […] m-cresol, pH 6.8, NaCl 50 mM",82.3%
same,Solubility of Lispro,"0.2% methylparaben + […] m-cresol, pH 6.8, NaCl 80 mM",62.6%
same,Solubility of Lispro,"0.2% methylparaben + […] m-cresol, pH 6.8, NaCl 110 mM",47.8%
same,Solubility of Lispro,"0.2% methylparaben + […] m-cresol, pH 6.8, NaCl 140 mM",42.0%
same,Solubility of Lispro,"0.2% methylparaben + […] m-cresol, pH 7.0, NaCl 50 mM",95.3%
same,Solubility of Lispro,"0.2% methylparaben + […] m-cresol, pH 7.0, NaCl 80 mM",98.1%
same,Solubility of Lispro,"0.2% methylparaben + […] m-cresol, pH 7.0, NaCl 110 mM",94.1%
same,Solubility of Lispro,"0.2% methylparaben + […] m-cresol, pH 7.0, NaCl 140 mM",65.6%
same,Solubility of Lispro,"0.2% methylparaben + […] m-cresol, pH 7.2, NaCl 50 mM",95.7%
same,Solubility of Lispro,"0.2% methylparaben + […] m-cresol, pH 7.2, NaCl 80 mM",97.9%
same,Solubility of Lispro,"0.2% methylparaben + […] m-cresol, pH 7.2, NaCl 110 mM",99.6%
same,Solubility of Lispro,"0.2% methylparaben + […] m-cresol, pH 7.2, NaCl 140 mM",98.0%
same,Solubility of Lispro,"0.2% methylparaben + […] m-cresol, pH 7.4, NaCl 50 mM",95.6%
same,Solubility of Lispro,"0.2% methylparaben + […] m-cresol, pH 7.4, NaCl 80 mM",98.2%
same,Solubility of Lispro,"0.2% methylparaben + […] m-cresol, pH 7.4, NaCl 110 mM",99.9%
same,Solubility of Lispro,"0.2% methylparaben + […] m-cresol, pH 7.4, NaCl 140 mM",98.5%
same,Solubility of Lispro,"0.2% methylparaben + […] m-cresol, pH 7.6, NaCl 50 mM",95.7%
same,Solubility of Lispro,"0.2% methylparaben + […] m-cresol, pH 7.6, NaCl 80 mM",98.3%
same,Solubility of Lispro,"0.2% methylparaben + […] m-cresol, pH 7.6, NaCl 110 mM",100.2%
same,Solubility of Lispro,"0.2% methylparaben + […] m-cresol, pH 7.6, NaCl 140 mM",98.8%
same,Solubility of Lispro,"0.2% phenol + […] m-cresol, pH 6.6, NaCl 50 mM",52.8%
same,Solubility of Lispro,"0.2% phenol + […] m-cresol, pH 6.6, NaCl 80 mM",32.8%
same,Solubility of Lispro,"0.2% phenol + […] m-cresol, pH 6.6, NaCl 110 mM",26.0%
same,Solubility of Lispro,"0.2% phenol + […] m-cresol, pH 6.8, NaCl 50 mM",91.4%
same,Solubility of Lispro,"0.2% phenol + […] m-cresol, pH 6.8, NaCl 80 mM",65.1%
same,Solubility of Lispro,"0.2% phenol + […] m-cresol, pH 6.8, NaCl 110 mM",44.9%
same,Solubility of Lispro,"0.2% phenol + […] m-cresol, pH 6.8, NaCl 140 mM",40.4%
same,Solubility of Lispro,"0.2% phenol + […] m-cresol, pH 7.0, NaCl 50 mM",97.4%
same,Solubility of Lispro,"0.2% phenol + […] m-cresol, pH 7.0, NaCl 80 mM",95.5%
same,Solubility of Lispro,"0.2% phenol + […] m-cresol, pH 7.0, NaCl 110 mM",75.2%
same,Solubility of Lispro,"0.2% phenol + […] m-cresol, pH 7.0, NaCl 140 mM",65.3%
same,Solubility of Lispro,"0.2% phenol + […] m-cresol, pH 7.2, NaCl 50 mM",97.6%
same,Solubility of Lispro,"0.2% phenol + […] m-cresol, pH 7.2, NaCl 80 mM",97.4%
same,Solubility of Lispro,"0.2% phenol + […] m-cresol, pH 7.2, NaCl 110 mM",95.2%
same,Solubility of Lispro,"0.2% phenol + […] m-cresol, pH 7.2, NaCl 140 mM",90.8%
same,Solubility of Lispro,"0.2% phenol + […] m-cresol, pH 7.4, NaCl 50 mM",97.7%
same,Solubility of Lispro,"0.2% phenol + […] m-cresol, pH 7.4, NaCl 80 mM",97.6%
same,Solubility of Lispro,"0.2% phenol + […] m-cresol, pH 7.4, NaCl 110 mM",97.0%
same,Solubility of Lispro,"0.2% phenol + […] m-cresol, pH 7.4, NaCl 140 mM",96.9%
same,Solubility of Lispro,"0.2% phenol + […] m-cresol, pH 7.6, NaCl 50 mM",97.5%
same,Solubility of Lispro,"0.2% phenol + […] m-cresol, pH 7.6, NaCl 80 mM",97.7%
same,Solubility of Lispro,"0.2% phenol + […] m-cresol, pH 7.6, NaCl 110 mM",97.3%
same,Solubility of Lispro,"0.2% phenol + […] m-cresol, pH 7.6, NaCl 140 mM",96.8%
same,Solubility (% of 120 U/mL),"2-8° C., pH 7.0, after 1 week at 80, 110 or 140 mM NaCl",below 65%
same,Solubility of Lispro,"[…] phenol + […] m-cresol, pH 6.6, NaCl 50 mM",60.3%
same,Solubility of Lispro,"[…] phenol + […] m-cresol, pH 6.6, NaCl 80 mM",43.3%
same,Solubility of Lispro,"[…] phenol + […] m-cresol, pH 6.6, NaCl 110 mM",24.2%
same,Solubility of Lispro,"[…] phenol + […] m-cresol, pH 6.6, NaCl 140 mM",27.7%
same,Solubility of Lispro,"[…] phenol + […] m-cresol, pH 6.8, NaCl 50 mM",93.6%
same,Solubility of Lispro,"[…] phenol + […] m-cresol, pH 6.8, NaCl 80 mM",60.8%
same,Solubility of Lispro,"[…] phenol + […] m-cresol, pH 6.8, NaCl 110 mM",44.9%
same,Solubility of Lispro,"[…] phenol + […] m-cresol, pH 6.8, NaCl 140 mM",35.9%
same,Solubility of Lispro,"[…] phenol + […] m-cresol, pH 7.0, NaCl 50 mM",98.7%
same,Solubility of Lispro,"[…] phenol + […] m-cresol, pH 7.0, NaCl 80 mM",96.4%
same,Solubility of Lispro,"[…] phenol + […] m-cresol, pH 7.0, NaCl 110 mM",77.0%
same,Solubility of Lispro,"[…] phenol + […] m-cresol, pH 7.0, NaCl 140 mM",61.2%
same,Solubility of Lispro,"[…] phenol + […] m-cresol, pH 7.2, NaCl 50 mM",100.5%
same,Solubility of Lispro,"[…] phenol + […] m-cresol, pH 7.2, NaCl 80 mM",99.2%
same,Solubility of Lispro,"[…] phenol + […] m-cresol, pH 7.2, NaCl 110 mM",97.3%
same,Solubility of Lispro,"[…] phenol + […] m-cresol, pH 7.2, NaCl 140 mM",93.1%
same,Solubility of Lispro,"[…] phenol + […] m-cresol, pH 7.4, NaCl 50 mM",100.8%
same,Solubility of Lispro,"[…] phenol + […] m-cresol, pH 7.4, NaCl 80 mM",101.8%
same,Solubility of Lispro,"[…] phenol + […] m-cresol, pH 7.4, NaCl 110 mM",100.7%
same,Solubility of Lispro,"[…] phenol + […] m-cresol, pH 7.4, NaCl 140 mM",98.4%
same,Solubility of Lispro,"[…] phenol + […] m-cresol, pH 7.6, NaCl 50 mM",100.9%
same,Solubility of Lispro,"[…] phenol + […] m-cresol, pH 7.6, NaCl 80 mM",102.1%
same,Solubility of Lispro,"[…] phenol + […] m-cresol, pH 7.6, NaCl 110 mM",101.6%
same,Solubility of Lispro,"[…] phenol + […] m-cresol, pH 7.6, NaCl 140 mM",101.3%
